Experimental data published in PMC6969036 (Nature Communications, 2020).

What was measured:
[1] = target: Syt I (synaptotagmin I) expressed in 293T cells (UniProt P46096); assay: cell-based or functional assay
[2] = target: T1, GST-Syt I-C2A (C2A domain of synaptotagmin I fused to glutathione S-transferase) (Mus musculus (assumed), UniProt P46096); assay: ELISA; GST-Syt I-C2A (0.25 pmol) coated on wells in PBS, 16 h 24 °C; blocked with 5% skim milk in PBS with 0.1% Tween 20; purified scFv (0.22-36 nM STAND-A36, 1.17-1800 nM scFv-T7-A36, 3.77-601 nM scFv-GFPA36) 2 h at 24 °C; detected with anti-Flag or anti-His; binding to GST wells subtracted; Kd from Hill-Langmuir fit; conditions: both partners purified
T1 construct: synaptotagmin I, C2A domain; its full-length Syt vectors are mouse; also called GST-C2A; source: purified

[3] = target: T2, GST-Syt I-C2B (C2B domain of synaptotagmin I fused to GST) (Mus musculus (assumed), UniProt P46096); assay: ELISA; purified STAND-A36 on the indicated GST-fused proteins (GST-C2A, GST-C2B, GST); absorbance, n = 3; conditions: both partners purified
T2 construct: synaptotagmin I, C2B domain; also called GST-C2B; source: purified
T2 sequence (P46096 whole entry, looked up, the tested form may be a part): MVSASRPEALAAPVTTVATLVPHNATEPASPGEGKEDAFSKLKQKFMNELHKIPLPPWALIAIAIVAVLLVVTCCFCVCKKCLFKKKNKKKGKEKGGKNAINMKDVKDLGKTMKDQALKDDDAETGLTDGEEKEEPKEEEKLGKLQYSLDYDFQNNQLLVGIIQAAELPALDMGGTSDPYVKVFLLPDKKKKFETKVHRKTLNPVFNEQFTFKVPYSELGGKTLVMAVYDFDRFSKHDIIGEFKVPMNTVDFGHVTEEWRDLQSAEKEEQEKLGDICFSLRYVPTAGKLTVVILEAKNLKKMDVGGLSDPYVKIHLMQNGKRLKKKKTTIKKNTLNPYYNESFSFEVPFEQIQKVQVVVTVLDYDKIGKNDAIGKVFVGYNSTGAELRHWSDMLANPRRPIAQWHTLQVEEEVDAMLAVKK

Chain of Syt I (synaptotagmin I) expressed in 293T cells (P46096 whole entry, the tested form may be a part): as the sequence (P46096 whole entry, looked up, the tested form may be a part) above

Binder | basal dopamine release in the striatum of mice expressing STAND-A36 (microdialysis), inhibition relative to mice expressing STAND-M4 [1] [%] | high potassium (60 mM)-induced dopamine release in cultured dopamine neurons infected with AAV1-STAND-A36, relative to STAND-M4 [1] [%] | Kd [2] [nM] | binding result [3]
STAND-A36 (s3Flag-scFv-A36-HA) expressed in 293T cells (scFv, V domains shown) VH: QVQLQQSGAELVRPGALVKLSCKASGFNIEDYYLHWVKQRPAQGLEWIGGIDPENGIAIYDSKFQGKASITADTSSNTAYLQLSSLTSEDTAVYYCATSEDSFDVWGQGTTVTVS VL: DIELTQSPATMAASPGEKITITCSASSSISSNYLHWYQQKPGFSPKLLIYRTSNLASGVPARFSGSGSGTSYSLTIGTMEAEDVATYYCQQGSSIPLTFGAGTKLEIK | 55.3 | 79.3 | – | –
scFv-T7-A36 (scFv-A36 fused with T7- and His-tags), purified from E. coli (scFv, V domains shown, scFv-A36: VH-(Gly4-Ser)3 linker-VL; source: E. coli, purified under non-denaturing conditions (Probond nickel-chelating resin); not shown: T7, N-terminal, kept; His6, C-terminal, kept) VH: QVQLQQSGAELVRPGALVKLSCKASGFNIEDYYLHWVKQRPAQGLEWIGGIDPENGIAIYDSKFQGKASITADTSSNTAYLQLSSLTSEDTAVYYCATSEDSFDVWGQGTTVTVS VL: DIELTQSPATMAASPGEKITITCSASSSISSNYLHWYQQKPGFSPKLLIYRTSNLASGVPARFSGSGSGTSYSLTIGTMEAEDVATYYCQQGSSIPLTFGAGTKLEIK | – | – | 341 | –
STAND-A36 (s3Flag-scFv-A36-HA), purified from E. coli (scFv, V domains shown, scFv-A36: VH-(Gly4-Ser)3 linker-VL, from the spleen of Balb/c mice immunised with GST-Syt II-C2A (phage display); s3Flag-scFv-HA constructs were synthesised and codon-optimised (Genscript); also called s3Flag-A36-HA; purified STAND-A36) VH: QVQLQQSGAELVRPGALVKLSCKASGFNIEDYYLHWVKQRPAQGLEWIGGIDPENGIAIYDSKFQGKASITADTSSNTAYLQLSSLTSEDTAVYYCATSEDSFDVWGQGTTVTVS VL: DIELTQSPATMAASPGEKITITCSASSSISSNYLHWYQQKPGFSPKLLIYRTSNLASGVPARFSGSGSGTSYSLTIGTMEAEDVATYYCQQGSSIPLTFGAGTKLEIK | – | – | 12.2 | no binding
